The source of these data is the DeepSol protein solubility set.

This data set is described as follows: soluble on expression in E. coli; label from the status in PepcDB or PDB records.
Consider “MKNIKDEWVQIALDLTSGLSSKDRFERLLSTIRNALKCDASALLLFKNQYFSPLATNGLDGDVIGRRFAISQHPRLEAIARAGDIVRFPSDSDLPDPYDGLIANEERQLQVHSCIGLPLLVNERLIGAVTIDAFDPTQFDSFTNKELRIISALAATSLHTALLMERLENQS”, for which the “soluble on expression in E. coli” value is “not soluble”.

In the case of “GSNAFGRFIDKIYLNSVGWRGIRQRKTHLQMLIKQAVAHLHAKGLAVRVVDIAAGHGRYVLDALANEPAISEILLRDYSEVNVAQGQEMIAQRGMSGRVRFEQGDAFNPEELSALTPRPTLAIVSGLYELFPENEQVKNSLAGLANAIDPGGILIYTGQPWHPQLELIAGVLTSHKDGKPWVMRVRSQGEMDSLVHDAGFDKCTQRIDVWGIFTVSMAVRRDN”, the “soluble on expression in E. coli” value is recorded as “not soluble”.

On to “MGSDKIHHHHHHMGLFNIFDVAGSGMSAQSLRLNTTASNIANADSVSSSIDKTYRSRHPIFEAEMAKAQSQQQASQGVAVKGIVESDKPLLKEYSPDHPMADGDGFIYKPNVNVMEEMADMISASRSYQMNVQVAEAAKSMLQQTLGMGK”, for which the “soluble on expression in E. coli” value is given as “not soluble”.

In the case of “MDDRLYAPATERNRDAILAVLKDELRSPGTVLEIASGTGEHGAYFAPQLPDYFWQPSDPNEESRRSIAAWRSHVNAPNLGEAIAIDVTRSDWVESVPEFPQPVVAIAAINLIHISPWEATLGLFAGAKQLLSVDGLIYLYGAYKRGGQHTAPSNEAFDASLQARNPAWGARNLEDVTAVAEAEQFRLDRIVEMPSNNLSVCFRAIALEHHHHHH”, the “soluble on expression in E. coli” value is on record as “soluble”.

As to “MEKTRANSHLRSQPIDWTIEEVIQYIESNDNSLAVHGDLFRKHEIDGKALLRLNSEMMMKYMGLKLGPALKICNLVNKVNGRDHHHHHH”, the “soluble on expression in E. coli” value was “soluble”.

For “MEATGLITEYNPFHNGHLYHLKKAQELTKADVTIVLMSGNWVQRGLPAITDKWKRAQAAIDAGADLVFELPFYYAVQAGEIFAQGAVRLLSDLQVSSIICGSEHADIDFINLAAHEPDISGNSNFDKKNRTFASNYAAALEEKTGFYLENANDILAFSYAKAILNQNLTEKIKLRTISRVSADYHDQFLNDGEIASATAIRKALSEGQNVDSYTPMSDLQY”, the “soluble on expression in E. coli” value is “not soluble”.

Turning to “MSLQEIIGASLVFLCNEKCEVLEDYGVVFDEKIVEIGDYQSLTLKYPHLKAQFFENSVLLPAFINAHTHFEFSNNKASFDYGSFSGWLGSVLNNGGAILENCQGAIQNAISTQLKSGVGSVGAISNHLIEVNLLKESPLNAVVFLEFLGSSYSLEKLKAFEAKFKELKDLEDKKLKAALAVHAPYSVQKDMALSVIQLAKDSQSLLSTHFLESLEELEWVENSKGWFENFYQHFLKESHFKSLYKGANDYIDMFKDTHTLFVHNQFASLEALKRIKSQVKNAFLITCPFSNRLLSGQALDLERTKEAGLSVSVATDGLSSNISLSLLDELRAFLLTHNMPLLELAKIALLGATRHGAKALALNNGEIEANKRADLSVFGFNEKFTKEQAILQFLLHAKEVECLFLGGKRVIEGHHHHHH”, the “soluble on expression in E. coli” value is listed as “soluble”.

In the case of “MGSDKIHHHHHHMNRSGTISGNNFQSTAAQTTAGPRESRLAASVCRIAPFYDFILRRKIMRQKIPLLASFKLTFRCNLSCLACPFHQRAGEEKANMSWSLARASLDALKHQGTLIVVFEGGEPFLWRDGRHDLHDLVNYAGRLFPRVAVTTNGTFPLDVPADILWVSLDGLKETHDRLRSGSFDRVWENLEQCSHGRLFVHFTINRENRHDIRPLLEKLKGIPAFRGMTVQLFYPYGQGEASLALSDLERKTVLEEVVAMKKQGFPILNSAGRLTAMINNDWRCHDDILINVDPDGAITPGCYVKSRGRINCRNCGFSPVSEASGALDLFPGSLKAGWSIFLK”, the “soluble on expression in E. coli” value is reported as “not soluble”.

As for “MSSARLVIAGLNGGTGKTILSLGTVRALTNAGHSVKPFKKGPDYIDAEWLGLAAGRAATNLDPFFLDAARLQSLFLHASAGASISIIEGNRGLYDGRDVTGSCSTAELARILDSPVVLAMDCTKMTRTAAAILSGVAAFEPGVKLAGVVLNRTANERHRSMLRQCIEHYTDIPVLGALPRLRDNPIPERHMGLVSDREFAQCAGELDRVAQFVAQHVDVERMAEIARSAQPLASNEPFWPVVAEGDGVRPRIGYVRDAALWFYYEENLEALRQAGADLVELRIIDGDPWPTLDGLYLGGGFPETLASELSACRERLAGIREAALAGLPVYAECGGFMVLGESIVMDGVEYPMSGVFPVQTVFHPKPQGLGYVEAEVVAENPFFPQGMVFRGHEFHYSACRPRDGGAVTHALRLNPGTGMGGGADGLVQANTFAAYTHIFGPAVQGWAERFVRAARGHRDQLNKGTDLSLEHHHHHH”, the “soluble on expression in E. coli” value is “not soluble”.

Turning to “DVDEVLRLCAEGLHDVLGYERVNILMADTARTSLSFVAAVGTADFNPAGVVLPLDQRGGVITKCFTDRQVYMIDDVSAYPTDFRLQSPYDAIRALRSKSFVICPIVVKGEAIGVFAVDNRSSR”, the “soluble on expression in E. coli” value is reported as “not soluble”.

In the case of “MGSDKIHHHHHHMIDSMTHRKLSKTAQPLSPTRPWHSTKATCYSAMLSTWSLSQKRLSISALILAITSTATWANEVKNQDIQAASKSNTCYVEGVSDRLNCGFVTVPENPNKPDGKQIQVHYVVLPAVKNANHEEALLAIAGGPGQSAIDNAAGFDAMLSKVRQQRDILLIDQRGTGRSNLLTCDESANPLSLDDDSIDPSAETQKCLDKIDADVSQYGSLNAVKDFEAVRAHLGYKKLHIYGISYGTRMAQLYMRLYPEQLATVTLDGVVPMQQSVLEIGSAIDRGFELLFKDCQENTVCKQQFPQLKAEFEQVANTLAKGAITENVFDPVTGEKNQLIITRGKFYGAIRMALYQTNVRALVPHAIHQAANNHFQPLLGLYALTVDNAGIAMGMHTSVVCGEDIHRITPAMREKAASSYVGQTMLDSMEKTCAIWKVPAVDNSFSEPISSNIPTLLLSGEIDPATPPSWGELAMEKLTNAKHFIAPYATHGVAYQSCANGLVADLVRTGSINDLDGECLNKDVRRSFYLNASSVEPLNATSTKTTTTNNNASTGAKE”, the “soluble on expression in E. coli” value is given as “not soluble”.

“MICFRTAFILILGVVIGTTAKRHNVRRHVNGKWTDKHCEEPPSLKEDLATWMQISMSGQFDDTALEEWSTNGKEPEICEKSPKADGVTTIMERALCPWDSRVNYQESREPKLIAESVCLCRKSRGSTGAFCMPIVRKVPILRRVSCDRSTGLWNYVRSTELITVGCHSVLPRTQRAARLAHLSSSRIIV”: the “soluble on expression in E. coli” value was “not soluble”.

Regarding “GYKKIPKKKLKDLMVELYVADGHFANIYDPKLTDSVREAVYTNLFAKYGTTRMDYDSTLMWYGRHDLEEYIAICQSVRDELEKQRIDLDKQITLEREKKGMDMLDGSFYELDSINMLAGDSTCFYRPEMPFLNRSFIITPGTAYKEGTRLEFVTRLRGLQLRPDATMEMFLQLVCTDNTVLTVSRPVNPGINMLTTSVPDSASVSRVYGYLRGFPDSAGIMSLSPFVIDSFSLRKF”, the “soluble on expression in E. coli” value is recorded as “not soluble”.

Take “MGSSHHHHHHSQDPPAVHKLTKRIPLRRQVTVSAESSSSMNSNTPLVRITTRLSSTADTPMLAGVSEYELPEDPKWEFPRDKLTLGKPLGEGCFGQVVMAEAVGIDKDKPKEAVTVAVKMLKDDATEKDLSDLVSEMEMMKMIGKHKNIINLLGACTQDGPLYVIVEYASKGNLREYLRARRPPGMEYSYDINRVPEEQMTFKDLVSCTYQLARGMEYLASQKCIHRDLAARNVLVTENNVMKIADFGLARDINNIDYYKKTTNGRLPVKWMAPEALFDRVYTHQSDVWSFGVLMWEIFTLGGSPYPGIPVEELFKLLKEGHRMDKPANCTNELYMMMRDCWHAVPSQRPTFKQLVEDLDRILTLTTNEE”: the “soluble on expression in E. coli” value is on record as “soluble”.

For the sequence “MGSDKIHHHHHHLIYIYYPELRLFNGDEITQKFVKGEVVEAHEVLRLKHSIATYRSRLCDISWFMRCLNEPIARQANQEDSCTGRFWEGRFKSQALLDEAAVLACMAYVDLNPIRAKMASTPEQSDHTSIQLRIRAALKGEQPNNLLPFIGNERQFQPKGITFALKDYLELVDDTGRIIRNDKRGSVSANSAKLLTRLNISQENWLKLTTEFGKLFHGPVGTLQELTSYCEHLEKRRRHFASCCQHLKAG”, the “soluble on expression in E. coli” value was “not soluble”.

As to “MAIKNAFYAQSGGVTAVINASACGVIQTARKHPDQIGKVYAGRNGIIGALKEELIDTSLESDDAIQALIHTPGGAFGSCRYKLKNISENQREYERLIEVFRAHDIGYFFYNGGGDSQDTAYKVSQLADRMGYPITCIGVPKTVDNDLPFTDCCPGFGSVAKYIATSTLEASLDIKSMCETSTKVFILEVMGRHAGWIAAAGGLAGQSEGEPPHVILFPEIPFNREKFLERVDQCVRDYGYCVVVASEGAQYEDGRFVADAGAKDAFGHTQLGGVAPALANMVKQALGHKYHWAVADYLQRAARHIASATDVEQAYAVGKAAVEMALAGKQALMPTIVRDQAKPYRWSIGEANLSEVANQEKKMPIHYITDNGFGITQDCRDYLQPLIAGESFPPFDDGLPRVAKLKNQLVEKKLRTEFELLEHHHHHH”, the “soluble on expression in E. coli” value is “not soluble”.

On to “MGSDKIHHHHHHMSKLKDYNIDKVIIFNNLSTKTKNQLKEKVKLKRLQKKEILFYEKDSLDSVYILLEGKVSIFKISENGERKVIFILNSGEVINDITLDASKNSTVGCEAFENSIVAYYSIEEFLEIMQNDFQLTKDIISYMERRIRRLYRQLKNSISIKVDKKLAAKLYRLSREFGVCCGEWTLLNVNITVTYLADMLGCKRETVSRMIKVLQKEELIKIDNKGFYVKETELSRYFKNN”, for which the “soluble on expression in E. coli” value is recorded as “not soluble”.

For “MAHHHHHHMLSKGNVKNLATDEINEMIDNSLKSGDTDEAPYFLQQNNIYWETGHRTYIPFFHFMIHKYTTKIIDDQIRKFTESVKSVHHTPYVFHKDGYFRSYYGDPDINMVFNLKKNTNFIFNSTGTHNSYSLLCNNNTYDKSTHIFDQVLMSAFKLDLKSVLENNV”, the “soluble on expression in E. coli” value is on record as “not soluble”.

For the sequence “MGSDKIHHHHHHMTLKSRIGILAGKTAHFFLSKIGRGSTLPGKIALKCDKDILDTLAKDYDIVVVTGTNGKTLTTALTVGILKEAYGQVLTNPSGANMITGITSTFLTAKKSRNGKKIAVLEIDEASLPKITDYLKPSLFVFTNIFRDQMDRYGEIYTTYQMILDGAAKAPKATILANGDSPLFNAKTVVNPVRYYGFDTKKEAAHLAHYNTEGIVCPKCEYILQYKLNTYANLGDYICPNCGFHRPHLDYSLTQLTKISNTQAEFIIDGQDYKINVGGLYNIYNALAAVAVAEFLGVTPEQIKAGFDKSRAVFGRQETFKIGDKSCTLVLIKNPVGASQALEMIKLAPYPFTLSVLLNANYADGIDTSWIWDANFESILDMNIPQIFTGGVRHSEIARRLRVTGYNETKIEQAEKLEDILSMIEKQEADHAYILATYTAMLEFRELLASRHAVRKEMH”, the “soluble on expression in E. coli” value was “not soluble”.

As to “MGSDKIHHHHHHMKRFTLWNSYVAITESKEFVDWNKTKIIGSFKCPAFSYRSSTQIKADPFLFEYNNAIYLFYEEKYKNGKGYIVCTWTSDLKNWSQPVVVLKEPFHLSFPYVFKINDKIYMLPESNESNELRLYECVDFPYKWKLNKIIFDNGKYVDSSIICKGDIYYLFTTHKTENSFYHELYYCNDLLSDKWIKHPQSPISNNPKFARNGGSVFSHNNNLFRPAQDCSVSYGNNLSIFNVTHLSIDKYEETLVATNFFPKYKFKHGGHHFSHIEYKGQNIIAFDKKSREYAITPLFSSLYALICRLMKITSHK”, the “soluble on expression in E. coli” value is “not soluble”.

On to “MADPWQECMDYAVTLAGQAGEVVREALKNEMNIMVKSSPADLVTATDQKVEKMLITSIKEKYPSHSFIGEESVAAGEKSILTDNPTWIIDPIDGTTNFVHGFPFVAVSIGFVVNKKMEFGIVYSCLEDKMYTGRKGKGAFCNGQKLQVSHQEDITKSLLVTELGSSRTPETVRIILSNIERLLCLPIHGIRGVGTAALNMCLVAAGAADAYYEMGIHCWDVAGAGIIVTEAGGVLLDVTGGPFDLMSRRVIASSNKTLAERIAKEIQIIPLQRDDED”, for which the “soluble on expression in E. coli” value is “soluble”.
